One molecule from paper doi:10.1101/2022.10.09.511515, “DNA segment capture by Smc5/6 holo-complexes” (bioRxiv, 2022) can be followed below.

The test deals with T1, Smc5(G1054C) (S. cerevisiae, UniProt Q08204 1-1093, G1054C).
T1 construct: Smc5, S. cerevisiae; subunit of the Smc5/6 hexamer; Stood in the assay as a subunit of the purified Smc5/6 hexamer (Smc5, Smc6, Nse1-4); also called Smc5 with the engineered cysteine of the Smc5/Nse4 interface
T1 sequence (looked up): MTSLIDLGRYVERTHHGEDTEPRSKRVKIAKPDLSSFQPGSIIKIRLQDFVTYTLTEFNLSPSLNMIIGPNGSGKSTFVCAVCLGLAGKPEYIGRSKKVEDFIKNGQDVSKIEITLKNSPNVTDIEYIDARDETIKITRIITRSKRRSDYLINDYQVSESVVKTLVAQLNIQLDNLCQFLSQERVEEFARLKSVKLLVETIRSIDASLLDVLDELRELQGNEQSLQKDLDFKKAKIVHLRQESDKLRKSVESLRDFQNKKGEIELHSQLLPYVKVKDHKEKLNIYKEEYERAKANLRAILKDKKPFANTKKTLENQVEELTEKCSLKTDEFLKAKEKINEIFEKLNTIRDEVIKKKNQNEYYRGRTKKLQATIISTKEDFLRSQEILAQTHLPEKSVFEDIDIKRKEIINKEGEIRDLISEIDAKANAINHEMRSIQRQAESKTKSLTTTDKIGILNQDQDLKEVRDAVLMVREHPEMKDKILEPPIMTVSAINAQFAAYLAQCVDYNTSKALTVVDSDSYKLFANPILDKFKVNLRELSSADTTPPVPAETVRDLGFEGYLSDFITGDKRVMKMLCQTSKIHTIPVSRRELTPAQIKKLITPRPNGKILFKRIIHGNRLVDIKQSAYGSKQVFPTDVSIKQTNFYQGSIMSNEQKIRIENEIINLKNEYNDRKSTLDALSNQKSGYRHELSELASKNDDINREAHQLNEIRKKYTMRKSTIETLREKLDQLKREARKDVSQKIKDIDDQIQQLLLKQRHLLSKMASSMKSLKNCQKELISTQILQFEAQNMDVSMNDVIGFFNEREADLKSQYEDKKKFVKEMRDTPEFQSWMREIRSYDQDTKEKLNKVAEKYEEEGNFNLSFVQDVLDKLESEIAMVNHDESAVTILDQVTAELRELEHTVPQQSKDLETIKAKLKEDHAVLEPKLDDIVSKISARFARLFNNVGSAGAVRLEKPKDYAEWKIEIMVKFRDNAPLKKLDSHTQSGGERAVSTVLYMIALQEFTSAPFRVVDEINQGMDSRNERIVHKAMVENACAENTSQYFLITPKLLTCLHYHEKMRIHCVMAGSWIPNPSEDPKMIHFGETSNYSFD
The experiment in a line: cross-linking; as a1 with the Nse5/6 dimer added in 1.25 x molar excess (0.625 uM) to the hexamer; SDS-PAGE, Coomassie. The following applies: both partners purified.

B1: Nse5/6 dimer (complex, S. cerevisiae)
chain 1: MDGALINSVLYVSPRNGAHYFVELTEKHLLAFEMLNSMCLLENYDHVLLFLECQFGKSHNLAVIPFDIILVLFTLSTLSEYYKEPILRANDPYNTSRETLSRRALKLLQKYLAILKEFDSEQYNLYDLELLRCQFFLAIDTLTPKKQKWGFDRFRRTKSESGVTYRQNASVDPELDQAKTFKNPYRSYISCLEQRNTILGNRLLNLKLNEPGEFINMILWTLSNSLQESTPLFLSSHEIWMPLLEILIDLFSCRQDYFIQHEVAQNVSKSLFVQRLSESPLAVFFESLNTRNFANRFSEYVFLNCDYKLPSDNYATPVHPVYNGENTIVDTYIPTIKCSPLYKSQKSLALRRKLIGSCFKLLLRVPDGHRLITPRIVADDVIQGISRTLASFNDILQFKKFFMTENLSQESYFIPLLAEGTLSEILKDTQECVVILTLVENLSDGVSFCNEVIGLVKSKCFAFTEQCSQASYEEAVLNIEKCDVCLLVLLRYLLHLIGTEAILDAKEQLEMLHAIEKNDSGRRQWAKALNLGNDPPLLYPIVSQMFGVHDKSVIIE
chain 2: MGSVNSSPNEEFETVPDSQISGFDSPLIPTSVGSYFRDDDDDEKVHPNFISDPENDSLNSDEEFSSLENSDLNLSGAKAESGDDFDPILKRTIISKRKAPSNNEDEEIVKTPRKLVNYVPLKIFNLGDSFDDTITTTVAKLQDLKKEILDSPRSNKSIVITSNTVAKSELQKSIKFSGSIPEIYLDVVTKETISDKYKDWHFISKNCHYEQLMDLEMKDTAYSFLFGSSRSQGKVPEFVHLKCPSITNLLVLFGVNQEKCNSLKINYEKKENSRYDNLCTIFPVNKMLKFLMYFYSDDDNDDVREFFLKAFICLILDRKVFNAMESDHRLCFKVLELFNEAHFINSYFEIVDKNDFFLHYRLLQIFPHLQSALLRRRFSEKQGRTETIQQNIIKEFNEFFDCKNYKNLLYFILTMYGSKFIPFGPKCQVTEYFKDCILDISNETTNDVEISILKGILNLFSKIR
notes: Nse5, S. cerevisiae; a native cysteine of it cross-links to Smc5(G1054C); Nse6, S. cerevisiae; also called Nse5/6 loader; loader Nse5/6
For the molecule B1, the binding result was “binds”.
